Reference: the supplement of paper PMC11875167

Experiment: observed amide hydrogen exchange rate constant kobs (stretched exponential fit, FD-normalized) (s^-1); higher = faster H/D exchange (less protection)
Details: pH 3 (pH read); temperature: 20 °C; D2O: 88%
Method in brief: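 Exchange was started by placing Jurkat tryptic peptides in 88% D2O at pHread 3 and 20 °C, and was stopped with 0.23% formic acid at 13 times from 18 to 93,600 s. HDExaminer processed MS1 uptake from a Q-Exactive HF with no back-exchange correction, normalizing it to full-deuteration controls prepared for 24 h at 37 °C. The fit used a stretched single exponential with β = 0.8. The observed exchange rate constant kobs is defined as the rate from this fit.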

Substance	observed amide hydrogen exchange rate constant kobs
EQVANSAFVER	0.00104
ESKDPADETEAD	0.00321
ESTGAQVQVAGDMLPNSTER	0.00119
ESTLHLVLR	0.00129
ESVPEFPLSPPK	0.00083
ESYSVYVYK	0.000648
ETIEQEK	0.00152
EVDEQMLNVQNK	0.00132
EVFEDAAEIR	0.002
EVFSMAGVVVR	0.00144
EVLAGR	0.00244
EVSTYIK	0.000877
EVTPEGLQMVK	0.000799
EVVEEAENGR	0.00211
EWFLQAAK	0.00111
FAAATGATPIAGR	0.00118
FAAYFQQGDMESNGK	0.00182
FAQPGSFEYEYAMR	0.00134
FDLMYAK	0.000933
FEDENFILK	0.00131
FFEVILIDPFHK	0.000722
FGYVDFESAEDLEK	0.00214
FHGTVK	0.00166
FHVEEEGK	0.00347
FLILPDMLK	0.000536

Substance	observed amide hydrogen exchange rate constant kobs
FLPLFDR	0.00116
FLVYVANFDEK	0.000821
FNVWDTAGQEK	0.00146
FPGQLNADLRK	0.00145
FSELTAEK	0.00148
FSGWYDADLSPAGHEEAK	0.00239
FSHEEIAMATVTALRR	0.000978
FTQAGSEVSALLGR	0.00109
FVADGIFK	0.00103
FVSISDLLVPK	0.000665
FYEAFSK	0.00122
GADFLVTEVENGGSLGSK	0.00147
GAEAANVTGPGGVPVQGSK	0.00103
GALQNIIPASTGAAK	0.000988
GAVDGGLSIPHSTK	0.00225
GCITIIGGGDTATCCAK	0.00119
GDEEGVPAVVIDMSGLR	0.00109
GDEELDSLIK	0.000999
GDGPVQGIINFEQK	0.000693
GEATVSFDDPPSAK	0.00157
GEENLMDAQVK	0.00185
GEGQLGPAER	0.0023
GEMMDLQHGSLFLR	0.00161
GFGFILFK	0.000667
GFGFVDFNSEEDAK	0.00238

Substance	observed amide hydrogen exchange rate constant kobs
GFGFVLFK	0.000656
GFGFVTYATVEEVDAAMNARPHK	0.00098
GFSTWLK	0.000875
GGGQIIPTAR	0.000898
GGSDGYGSGR	0.00404
GHYTEGAELVDSVLDVVRK	0.00131
GIAYIEFK	0.00091
GIGYLK	0.00124
GILAADESTGSIAK	0.00166
GIVDQSQQAYQEAFEISK	0.000918
GLAPDLPEDLYHLIK	0.00112
GLFIIDDK	0.00107
GLSEDTTEETLK	0.003
GLTPSQIGVILR	0.00062
GLTSVINQK	0.000815
GLVGEIIK	0.000569
GNFGGSFAGSFGGAGGHAPGVAR	0.00196
GNPTVEVDLFTSK	0.000833
GNSIIMLEALERV	0.00109
GPDGLTAFEATDNQAIK	0.00114
GPSSVEDIK	0.00156
GRGARGGKAEDK	0.00275
GSYGDLGGPIITTQVTIPK	0.000771
GTGIVSAPVPK	0.00104
GTLDPVEK	0.00116

Substance	observed amide hydrogen exchange rate constant kobs
GVNLPGAAVDLPAVSEK	0.0011
GVVDSEDLPLNISR	0.0013
GVVPLAGTNGETTTQGLDGLSER	0.00156
GYDVIAQAQSGTGK	0.00126
GYFEYIEENK	0.00229
GYISPYFINTSK	0.000598
GYSFTTTAER	0.00184
HALIIYDDLSK	0.00058
HAVSEGTK	0.00263
HEHQVMLMR	0.00145
HELLQPFNVLYEK	0.00104
HFVALSTNTTK	0.00117
HIADLAGNSEVILPVPAFNVINGGSHAGNK	0.00138
HIYYITGETK	0.00121
HLEINPDHPIVETLR	0.00133
HLEINPDHSIIETLR	0.00155
HLQLAIRNDEELNK	0.00184
HQEGEIFDTEK	0.0025
HQGVMVGMGQK	0.00127
HQPTAIIAK	0.00045
HSQFIGYPITLYLEK	0.000606
HWPFMVVNDAGRPK	0.00131
HYGGLTGLNK	0.00221
